Experimental data: patent publication US20240228562A1, “NOVEL LIPOCALIN MUTEINS SPECIFIC FOR CONNECTIVE TISSUE GROWTH FACTOR (CTGF)” (PIERIS PHARMACEUTICALS GMBH, priority 2021, published 2024)

Experiment: Thermal stability assessment by nanoDSC
Type: physicochemical
Details: 1 mg/mL in PBS, scan 25-100° C. at 1° C./min; for TM: major transition
Method: To determine the melting temperatures (Tms) of the lipocalin muteins, which is a general indicator for folding stability, the CTGF specific muteins, at a protein concentration of 1 mg/mL in PBS (Gibco), were scanned (25-100° C.) at 1° C./min using a capillary nanoDSC instrument (CSC 6300, TA Instruments). […] Several unfolding events can contribute to the observed thermogram. In cases with multiple transitions, the one with the major unfolding energy best represents the overall protein fold and is reported. Muteins were produced as described in Example 3. SEQ ID NOs: 3, 7, 9, 25, and 29 were expressed using E. coli, the other muteins were expressed using CHO cells.
The resulting maximum melting temperatures as well as the onset temperature of melting for exemplary lipocalin muteins and fusion proteins are listed in Table 3 below.

B1: SEQ ID NO: 62: fusion protein comprising two CTGF-binding lipocalin muteins (protein)
chain: QDSTSDLIPAPPLSKVPLQQNFQDNQFQGKWYVVGRAGNNQLREDKSPPKMWATIYELKEDKSYDVTHVHFSTKKCRYIIDTFVPGSQPGEFTAGAIKSGPGLTSPLVRVVSTNYNQHAMVFFKWVTQNREWFTITLYGRTKELTSELKENFIRFSKSLGLPENHIVFPVPIDQCIDGGGGGSGGGGSGGGGSQDSTSDLIPAPPLSKVPLQQNFQDNQFQGKWYVVGWAGNVKLREDKQPQKMSATIYELKEDKSYDVTEVVFEQKKCHYIIKTFVPGSQPGEFTAGDIKSPPGYTSSLVRVVSTNYNQHAMVFFKKVSQNREFFWITLYGRTKELTSELKENFIRFSKSLGLPENHIVFPVPIDQCIDG
modifications: fusion protein
- ONSET MELTING: 53 °C
- TM: 67 °C

B2: SEQ ID NO: 63: fusion protein comprising two CTGF-binding lipocalin muteins (protein)
chain: QDSTSDLIPAPPLSKVPLQQNFQDNQFQGKWYVVGRAGNNQLREDKSPPKMWATIYELKEDKSYDVTHVHFSTKKCRYIIDTFVPGSQPGEFTAGAIKSGPGLTSPLVRVVSTNYNQHAMVFFKWVTQNREWFTITLYGRTKELTSELKENFIRFSKSLGLPENHIVFPVPIDQCIDGGGGGSGGGGSGGGGSQDSTSDLIPAPPLSKVPLQQNFQDNQFQGKWYVVGLAGNAILREDKQPAKMFATIYELKEDKSYDVTSVRFEAKSCKYTIKTFVPGSQPGEFTAGYIKSAPGQTSTLVRVVSTNYNQHAMVFFKHVTQNREIFVITLYGRTKELTSELKENFIRFSKSLGLPENHIVFPVPIDQCIDG
modifications: fusion protein
- ONSET MELTING: 50 °C
- TM: 66 °C

B3: SEQ ID NO: 64: fusion protein comprising two CTGF-binding lipocalin muteins (protein)
chain: QDSTSDLIPAPPLSKVPLQQNFQDNQFQGKWYVVGLAGNYRLREDKDPSKMGATIYELKEDKSYDVTQVQFDDKKCLYVIETFVPGSQPGEFTLGAIKSYPGLTSQLVRVVSTNYNQHAMVFVKKVWPNLEYFQIVLYGRTKELTSELKENFIRFSKSLGLPENHIVFPVPIDQCIDGGGGGSGGGGSGGGGSQDSTSDLIPAPPLSKVPLQQNFQDNQFQGKWYVVGLAGNAILREDKQPAKMFATIYELKEDKSYDVTSVRFEAKSCKYTIKTFVPGSQPGEFTAGYIKSAPGQTSTLVRVVSTNYNQHAMVFFKHVTQNREIFVITLYGRTKELTSELKENFIRFSKSLGLPENHIVFPVPIDQCIDG
modifications: fusion protein
- ONSET MELTING: 56 °C
- TM: 65 °C

B4: SEQ ID NO: 69: fusion protein comprising two CTGF-binding lipocalin muteins (protein)
chain: QDSTSDLIPAPPLSKVPLQQNFQDNQFQGKWYVVGLAGNAILREDKQPAKMFATIYELKEDKSYDVTSVRFEAKSCSYTSKTFVPGSQPGEFTAGNIKSAPGQTSTLVRVVSTNYNQHAMVFFKHVSQNRETFVITLYGRTKELTSELKENFIRFSKSLGLPENHIVFPVPIDQCIDGGGGGSGGGGSGGGGSQDSTSDLIPAPPLSKVPLQQNFQDNQFQGKWYVVGLAGNYRLREDKDPSKMGATIYELKEDKSYDVTQVQFDDKKCLYVIETFVPGSQPGEFTLGAIKSYPGLTSQLVRVVSTNYNQHAMVFVKKVWPNLEYFQIVLYGRTKELTSELKENFIRFSKSLGLPENHIVFPVPIDQCIDG
modifications: fusion protein
- ONSET MELTING: 57 °C
- TM: 64 °C

B5: SEQ ID NO: 72: fusion protein comprising two CTGF-binding lipocalin muteins (protein)
chain: QDSTSDLIPAPPLSKVPLQQNFQDNQFQGKWYVVGLAGNAILREDKYPAKMFATIYELKEDKSYDVTSVRFENKSCVYTIKTFVPGSQPGEFTTGNIKSAPGQTSTLVRVVSTNYNQHAMVFFKHVSQNREFFVITLYGRTKELTSELKENFIRFSKSLGLPENHIVFPVPIDQCIDGGGGGSGGGGSGGGGSQDSTSDLIPAPPLSKVPLQQNFQDNQFQGKWYVVGLAGNYRLREDKDPSKMGATIYELKEDKSYDVTQVQFDDKKCLYVIETFVPGSQPGEFTLGAIKSYPGLTSQLVRVVSTNYNQHAMVFVKKVWPNLEYFQIVLYGRTKELTSELKENFIRFSKSLGLPENHIVFPVPIDQCIDG
modifications: fusion protein
- ONSET MELTING: 62 °C
- TM: 66 °C

B6: SEQ ID NO: 75: fusion protein comprising two CTGF-binding lipocalin muteins (protein)
chain: QDSTSDLIPAPPLSKVPLQQNFQDNQFQGKWYVVGLAGNAILREDKQPAKMFATIYELKEDKSYDVTSVRFEAKSCKYTIKTFVPGSQPGEFTAGYIKSAPGQTSTLVRVVSTNYNQHAMVFFKHVTQNREIFVITLYGRTKELTSELKENFIRFSKSLGLPENHIVFPVPIDQCIDGGGGGSGGGGSGGGGSQDSTSDLIPAPPLSKVPLQQNFQDNQFQGKWYVVGLAGNYRLREDKDPSKMGATIYELKEDKSYDVTQVQFDDKKCLYVIETFVPGSQPGEFTLGAIKSYPGLTSQLVRVVSTNYNQHAMVFVKKVWPNLEYFQIVLYGRTKELTSELKENFIRFSKSLGLPENHIVFPVPIDQCIDG
modifications: fusion protein
- ONSET MELTING: 58 °C
- TM: 65 °C

B7: SEQ ID NO: 70: fusion protein comprising two CTGF-binding lipocalin muteins (protein)
chain: QDSTSDLIPAPPLSKVPLQQNFQDNQFQGKWYVVGWAGNVKLREDKQPQKMSATIYELKEDKSYDVTEVVFEQKKCHYIIKTFVPGSQPGEFTAGDIKSPPGYTSSLVRVVSTNYNQHAMVFFKKVSQNREFFWITLYGRTKELTSELKENFIRFSKSLGLPENHIVFPVPIDQCIDGGGGGSGGGGSGGGGSQDSTSDLIPAPPLSKVPLQQNFQDNQFQGKWYVVGLAGNAILREDKQPAKMFATIYELKEDKSYDVTSVRFEAKSCKYTIKTFVPGSQPGEFTAGYIKSAPGQTSTLVRVVSTNYNQHAMVFFKHVTQNREIFVITLYGRTKELTSELKENFIRFSKSLGLPENHIVFPVPIDQCIDG
modifications: fusion protein
- ONSET MELTING: 55 °C
- TM: 73 °C

B8: SEQ ID NO: 68: fusion protein comprising two CTGF-binding lipocalin muteins (protein)
chain: QDSTSDLIPAPPLSKVPLQQNFQDNQFQGKWYVVGLAGNAILREDKQPAKMFATIYELKEDKSYDVTSVRFEAKSCSYTSKTFVPGSQPGEFTAGNIKSAPGQTSTLVRVVSTNYNQHAMVFFKHVSQNRETFVITLYGRTKELTSELKENFIRFSKSLGLPENHIVFPVPIDQCIDGGGGGSGGGGSGGGGSQDSTSDLIPAPPLSKVPLQQNFQDNQFQGKWYVVGWAGNVKLREDKQPQKMSATIYELKEDKSYDVTEVVFEQKKCHYIIKTFVPGSQPGEFTAGDIKSPPGYTSSLVRVVSTNYNQHAMVFFKKVSQNREFFWITLYGRTKELTSELKENFIRFSKSLGLPENHIVFPVPIDQCIDG
modifications: fusion protein
- ONSET MELTING: 61 °C
- TM: 72 °C

B9: SEQ ID NO: 73: fusion protein comprising two CTGF-binding lipocalin muteins (protein)
chain: QDSTSDLIPAPPLSKVPLQQNFQDNQFQGKWYVVGLAGNAILREDKYPAKMFATIYELKEDKSYDVTSVRFENKSCVYTSKTFVPGSQPGEFTTGNIKSAPGQTSTLVRVVSTNYNQHAMVFFKHVSQNREFFVITLYGRTKELTSELKENFIRFSKSLGLPENHIVFPVPIDQCIDGGGGGSGGGGSGGGGSQDSTSDLIPAPPLSKVPLQQNFQDNQFQGKWYVVGWAGNVKLREDKQPQKMSATIYELKEDKSYDVTEVVFEQKKCHYIIKTFVPGSQPGEFTAGDIKSPPGYTSSLVRVVSTNYNQHAMVFFKKVSQNREFFWITLYGRTKELTSELKENFIRFSKSLGLPENHIVFPVPIDQCIDG
modifications: fusion protein
- ONSET MELTING: 71 °C
- TM: 75 °C

B10: SEQ ID NO: 71: fusion protein comprising two CTGF-binding lipocalin muteins (protein)
chain: QDSTSDLIPAPPLSKVPLQQNFQDNQFQGKWYVVGLAGNAILREDKYPAKMFATIYELKEDKSYDVTSVRFENKSCVYTIKTFVPGSQPGEFTTGNIKSAPGQTSTLVRVVSTNYNQHAMVFFKHVSQNREFFVITLYGRTKELTSELKENFIRFSKSLGLPENHIVFPVPIDQCIDGGGGGSGGGGSGGGGSQDSTSDLIPAPPLSKVPLQQNFQDNQFQGKWYVVGWAGNVKLREDKQPQKMSATIYELKEDKSYDVTEVVFEQKKCHYIIKTFVPGSQPGEFTAGDIKSPPGYTSSLVRVVSTNYNQHAMVFFKKVSQNREFFWITLYGRTKELTSELKENFIRFSKSLGLPENHIVFPVPIDQCIDG
modifications: fusion protein
- ONSET MELTING: 67 °C
- TM: 76 °C
